# According to paper PMC3883677, “The Quaternary Structure of the Recombinant Bovine Odorant-Binding Protein Is Modulated by Chemical Denaturants” (PLoS ONE, 2014):
# B1: recombinant bovine odorant-binding protein (natural protein)
# chain: AQEEEAEQNLSELSGPWRTVYIGSTNPEKIQENGPFRTYFRELVFDDEKGTVDFYFSVKRDGKWKNVHVKATKQDDGTYVADYEGQNVFKIVSLSRTHLVAHNINVDKHGQTTELTELFVKLNVEDEDLEKFWKLTEDKGIDKKNVVNFLENEDHPHPE
# notes: PDB 1OBP is the cited crystal structure of the native tissue-extracted bOBP dimer (domain-swapped); also called bOBP; recombinant bOBP; source: E. coli BL21(DE3), plasmid pT7-7-bOBP, purified (Ni-agarose, HisGraviTrap)
# Target: the molecule itself
# Assay: SEC; Superdex-75 PC 3.2/30, calibrated with mass standards; 20 mM Na-phosphate pH 7.8, no GdnHCl; protein 0.1-0.2 mg/ml; monomer to dimer
protein,measurement,value
B1,stoichiometry N,2
